Consider 1 molecule from paper PMC3807968 (2014).

The target of this test is T1, ligand 5 on uncrosslinked micelles, 5% loading (5-UXL) (not fully specified; also: uncrosslinked micelle).
T1 chain: {Butanoyl(4-Ph)}-H[dF]RWGK(Butanoyl(4-ethynyl))-NH2
As to the kind of experiment: Eu-NDP-α-MSH time-resolved fluorescence whole-cell competition binding.

[ ]: non-standard residue; d: D form. The star is where a group is joined. Butanoyl(4-Ph) = O=C(CCCc1ccccc1)*; Butanoyl(4-ethynyl) = C#CCCCC(=O)*

B1: Melanocortin 1 receptor (protein)
chain: MAVQGSQRRLLGSLNSTPTAIPQLGLAANQTGARCLEVSISDGLFLSLGLVSLVENALVVATIAKNRNLHSPMYCFICCLALSDLLVSGSNVLETAVILLLEAGALVARAAVLQQLDNVIDVITCSSMLSSLCFLGAIAVDRYISIFYALRYHSIVTLPRARRAVAAIWVASVVFSTLFIAYYDHVAVLLCLVVFFLAMLVLMAVLYVHMLARACQHAQGIARLHKRQRPVHQGFGLKGAVTLTILLGIFFLCWGPFFLHLTLIVLCPEHPTCGCIFKNFNLFLALIICNAIIDPLIYAFHSQELRRTLKEVLTCSW
Broadly, the Ki is a measure of affinity in units of concentration, obtained from inhibition or displacement. Read a high Ki as lower affinity. As for B1, affinity was put at a Ki of 12 nM.
